Source: patent publication US20230355720A1, “PHARMACEUTICAL COMPOSITION FOR PREVENTING OR TREATING BONE DISEASES, COMPRISING TRIPLE AGONIST OR CONJUGATE THEREOF HAVING ACTIVITY WITH RESPECT TO ALL OF GLUCAGON, GLP-1 AND GLP RECEPTORS” (HANMI PHARM. CO., LTD., priority 2020, published 2023)
Substitutions are numbered along the chain they refer to. Bridge positions count the residues as written; N and C are the ends. Square brackets hold non-standard residues; d marks the D form. Ends that are not written are not given here. * marks the point of attachment. Acetyl(2-(4-imidazolyl)) = O=C(Cc1c[nH]cn1)*; Aib = CC(C)(N)C(=O)O

T1: human GIP receptor (human, UniProt P48546 22-466)
T1 sequence (looked up): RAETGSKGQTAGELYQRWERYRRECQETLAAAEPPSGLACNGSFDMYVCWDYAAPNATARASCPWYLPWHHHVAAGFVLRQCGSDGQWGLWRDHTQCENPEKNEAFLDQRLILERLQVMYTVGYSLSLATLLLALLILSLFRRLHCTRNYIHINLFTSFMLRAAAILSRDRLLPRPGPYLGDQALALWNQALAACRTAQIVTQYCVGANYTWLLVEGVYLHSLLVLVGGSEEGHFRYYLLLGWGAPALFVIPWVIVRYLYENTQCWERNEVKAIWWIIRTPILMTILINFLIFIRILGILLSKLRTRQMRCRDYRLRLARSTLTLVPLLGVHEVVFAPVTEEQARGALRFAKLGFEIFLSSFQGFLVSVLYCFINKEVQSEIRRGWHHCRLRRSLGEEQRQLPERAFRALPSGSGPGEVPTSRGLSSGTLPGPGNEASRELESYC

B1: triple agonist of SEQ ID NO: 43 (peptide)
peptide: Y[Aib]QGTFTSDYSKYLDEKRAKEFVQWLLDHHCSSGQPPPS
modifications: bridge 16-20
B2: triple agonist of SEQ ID NO: 41 (peptide)
peptide: H[Aib]QGTFTSDKSKYLDECAAQDFVQWLLDGGPSSGAPPPS
modifications: not fully specified
B3: triple agonist of SEQ ID NO: 37 (peptide)
peptide: H[Aib]QGTFTSDYSKYLDECRQKEFVQWLLNGGPSSGAPPPSG
modifications: bridge 16-20
B4: triple agonist of SEQ ID NO: 1 (peptide)
peptide: H[Aib]QGTFTSDVSSYLDGQAAKEFIAWLVKGC
B5: triple agonist of SEQ ID NO: 5 (peptide)
peptide: H[Aib]QGTFTSDVSSYLLGQQQKEFIAWLVKGGGPSSGAPPPSC
B6: triple agonist of SEQ ID NO: 49 (peptide)
peptide: [Acetyl(2-(4-imidazolyl))][Aib]QGTFTSDYSICMDEIHQKDFVNWLLNTK
modifications: bridge 16-20
B7: triple agonist of SEQ ID NO: 38 (peptide)
peptide: [Acetyl(2-(4-imidazolyl))][Aib]QGTFTSDKSSYLDERAAQDFVQWLLDGGPSSGAPPPSS
modifications: not fully specified
B8: triple agonist of SEQ ID NO: 4 (peptide)
peptide: H[Aib]QGTFTSDVSSYLLGQQQKEFIAWLVKGC
B9: triple agonist of SEQ ID NO: 40 (peptide)
peptide: H[Aib]QGTFTSDKSKYLDERACQDFVQWLLDGGPSSGAPPPS
modifications: not fully specified
B10: triple agonist of SEQ ID NO: 34 (peptide)
peptide: H[Aib]QGTFTSDYSKYLDEKRQKEFVNWLLAQKC
modifications: bridge 16-20
B11: triple agonist of SEQ ID NO: 42 (peptide)
peptide: Y[Aib]QGTFTSDYSKYLDEKRAKEFVQWLLDHHPSSGQPPPSC
modifications: bridge 16-20
B12: triple agonist of SEQ ID NO: 50 (peptide)
peptide: H[Aib]QGTFTSDYSKYLDEKRAKEFVQWLLDHHPSSGQPPPSC
modifications: bridge 16-20
B13: triple agonist of SEQ ID NO: 36 (peptide)
peptide: H[Aib]QGTFTSDYSKYLCEKRQKEFVQWLLNGGPSSGAPPPSG
modifications: bridge 16-20
B14: triple agonist of SEQ ID NO: 44 (peptide)
peptide: HGQGTFTSDCSKQLDGQAAQEFVAWLLAGGPSSGAPPPS
B15: triple agonist of SEQ ID NO: 47 (peptide)
peptide: B14 peptide with Q13Y, A18R
B16: triple agonist of SEQ ID NO: 48 (peptide)
peptide: B14 peptide with Q13Y, A18R, E21D, A24N
B17: triple agonist of SEQ ID NO: 46 (peptide)
peptide: B14 peptide with Q13Y, G16E, A18H
B18: triple agonist of SEQ ID NO: 45 (peptide)
peptide: B14 peptide with Q13Y, L14M, E21D
B19: triple agonist of SEQ ID NO: 39 (peptide)
peptide: H[Aib]QGTFTSDYSKYLDGQHAQCFVAWLLAGGGPSSGAPPPS
B20: triple agonist of SEQ ID NO: 54 (peptide)
peptide: H[Aib]EGTFTSDYSIAMDEIHQKDFVDWLLAEC
modifications: bridge 16-20
B21: triple agonist of SEQ ID NO: 53 (peptide)
peptide: H[Aib]EGTFTSDYSIAMDEIHQKDFVNWLLAQC
modifications: bridge 16-20; not fully specified

molecular target: human GLP-1 receptor (human, UniProt P43220 24-463); assay: cell-based or functional assay

Going from B1 to B2, the “In vitro activity (%) compared with native peptide, vs GLP-1” value (from here on “In vitro activity (%) … vs GLP-1”) rises from 12.6% to 34.3%.

First: B3
Second: B4
The “In vitro activity (%) … vs GLP-1” value of the first is higher: 236% for the first, 3.2% for the second.

Compared with B5, B6 is lower in “In vitro activity (%) … vs GLP-1” value: 42.1% for the first, 29.8% for the second.

Compared with B7, B8 is higher in “In vitro activity (%) … vs GLP-1” value: 2.3% for the first, 8.5% for the second.

Going from B9 to B10, the “In vitro activity (%) … vs GLP-1” value falls from 75.2% to 19.1%.

First: B11
Second: B12
The “In vitro activity (%) … vs GLP-1” value of the first is lower: 33.9% for the first, 67.4% for the second.

Compared with B13, B14 is lower in “In vitro activity (%) … vs GLP-1” value: 37.4% for the first, 1.3% for the second.

First: B15
Second: B16
The “In vitro activity (%) … vs GLP-1” value of the first is higher: 2.4% for the first, 1.5% for the second.

Going from B17 to B18, the “In vitro activity (%) … vs GLP-1” value rises from 1.4% to 6.6%.

Going from B19 to B20, the “In vitro activity (%) … vs GLP-1” value rises from 13.9% to 30.6%.

For B21, the “In vitro activity (%) … vs GLP-1” value was 161%.

molecular target: human GCG receptor (human, UniProt P47871 26-477); assay: cell-based or functional assay
Sequence (P47871 26-477): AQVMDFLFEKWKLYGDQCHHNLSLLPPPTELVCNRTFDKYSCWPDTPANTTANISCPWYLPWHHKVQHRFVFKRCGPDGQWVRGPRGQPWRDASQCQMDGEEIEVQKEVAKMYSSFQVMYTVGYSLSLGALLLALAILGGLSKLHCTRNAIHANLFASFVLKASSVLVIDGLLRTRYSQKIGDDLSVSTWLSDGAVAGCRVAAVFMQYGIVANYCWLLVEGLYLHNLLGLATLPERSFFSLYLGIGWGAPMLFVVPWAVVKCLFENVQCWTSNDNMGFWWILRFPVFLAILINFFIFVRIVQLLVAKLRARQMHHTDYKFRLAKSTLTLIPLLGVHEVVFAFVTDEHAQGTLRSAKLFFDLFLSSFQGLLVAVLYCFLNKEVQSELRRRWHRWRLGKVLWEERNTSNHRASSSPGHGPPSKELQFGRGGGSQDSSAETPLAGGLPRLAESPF

Compared with B1, B2 is lower in “In vitro activity (%) compared with native peptide, vs Glucagon” value (“In vitro activity (%) … vs Glucagon” for short): 88.4% for the first, under 0.1% for the second.

Going from B3 to B4, the “In vitro activity (%) … vs Glucagon” value falls from 6.21% to under 0.1%.

B5 and B6 cannot be ordered by “In vitro activity (%) … vs Glucagon” value: under 0.1% for the first, under 0.1% for the second.

B8 and B9 cannot be ordered by “In vitro activity (%) … vs Glucagon” value: under 0.1% for the first, under 0.1% for the second.

Compared with B10, B11 is higher in “In vitro activity (%) … vs Glucagon” value: 0.92% for the first, 206% for the second.

Going from B12 to B13, the “In vitro activity (%) … vs Glucagon” value falls from 50.5% to 0.39%.

B14 and B15 cannot be ordered by “In vitro activity (%) … vs Glucagon” value: under 0.1% for the first, under 0.1% for the second.

B16 and B17 cannot be ordered by “In vitro activity (%) … vs Glucagon” value: under 0.1% for the first, under 0.1% for the second.

First: B18
Second: B19
The “In vitro activity (%) … vs Glucagon” value of the first is lower: under 0.1% for the first, 0.53% for the second.

First: B20
Second: B21
The “In vitro activity (%) … vs Glucagon” value of the first is lower: 1.4% for the first, 8.4% for the second.

molecular target: T1, human GIP receptor; assay: cell-based or functional assay

Going from B1 to B2, the “In vitro activity (%) compared with native peptide, vs GIP” value (“In vitro activity (%) … vs GIP” for short) falls from 3.7% to under 0.1%.

First: B3
Second: B4
The “In vitro activity (%) … vs GIP” value of the first is higher: 2.2% for the first, under 0.1% for the second.

First: B5
Second: B6
The “In vitro activity (%) … vs GIP” value of the first is lower: under 0.1% for the first, 3.3% for the second.

B8 and B9 cannot be ordered by “In vitro activity (%) … vs GIP” value: under 0.1% for the first, under 0.1% for the second.

First: B10
Second: B11
The “In vitro activity (%) … vs GIP” value of the first is lower: 0.6% for the first, 7.8% for the second.

Compared with B12, B13 is lower in “In vitro activity (%) … vs GIP” value: 2.7% for the first, 0.2% for the second.

B14 and B15 cannot be ordered by “In vitro activity (%) … vs GIP” value: under 0.1% for the first, under 0.1% for the second.

B16 and B17 cannot be ordered by “In vitro activity (%) … vs GIP” value: under 0.1% for the first, under 0.1% for the second.

B18 and B19 cannot be ordered by “In vitro activity (%) … vs GIP” value: under 0.1% for the first, under 0.1% for the second.

First: B20
Second: B21
The “In vitro activity (%) … vs GIP” value of the first is lower: 0.1% for the first, 1.3% for the second.
